Test results reported in publication PMC2877795, “Laminin chain assembly is regulated by specific coiled-coil interactions” (Journal of Structural Biology, 2010).

T1: β2γ1 complex of the recombinant mouse laminin coiled-coil fragments (mouse, UniProt Q61292 1575-1799; P02468 1362-1607)
T1 construct: two residues (GlySer) left from the protease recognition site after thrombin cleavage; laminin β2 chain, mouse, residues 1575-1799 of the native chain; as m7; laminin γ1 chain, mouse, residues 1362-1607 of the native chain; as m9; in the αβγ tests all three chains were mixed, the βγ complex was not isolated beforehand; source: mixture of the purified E. coli fragments; not shown: 6xHis, …
T1 sequence 1: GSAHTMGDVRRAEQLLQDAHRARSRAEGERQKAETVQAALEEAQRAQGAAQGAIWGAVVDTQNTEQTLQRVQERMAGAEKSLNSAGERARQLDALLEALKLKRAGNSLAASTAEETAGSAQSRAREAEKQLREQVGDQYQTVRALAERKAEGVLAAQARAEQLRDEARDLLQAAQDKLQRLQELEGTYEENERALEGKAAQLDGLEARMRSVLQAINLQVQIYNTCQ
T1 sequence 2: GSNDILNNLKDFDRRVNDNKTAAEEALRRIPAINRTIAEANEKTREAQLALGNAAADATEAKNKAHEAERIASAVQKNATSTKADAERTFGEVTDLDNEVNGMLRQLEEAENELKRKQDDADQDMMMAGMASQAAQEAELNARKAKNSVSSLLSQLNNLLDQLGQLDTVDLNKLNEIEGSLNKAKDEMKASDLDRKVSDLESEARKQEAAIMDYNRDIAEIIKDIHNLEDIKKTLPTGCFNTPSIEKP

T2: β2γ2 complex of the recombinant mouse laminin coiled-coil fragments (mouse, UniProt Q61292 1575-1799; Q61092 949-1191)
T2 construct: two residues (GlySer) left from the protease recognition site after thrombin cleavage; laminin β2 chain, mouse, residues 1575-1799 of the native chain; as m7; laminin γ2 chain, mouse, residues 949-1191 of the native chain; as m10; in the αβγ tests all three chains were mixed, the βγ complex was not isolated beforehand; also called β2γ2 dimer; source: mixture of the purified E. coli fragments; not …
T2 sequence 1: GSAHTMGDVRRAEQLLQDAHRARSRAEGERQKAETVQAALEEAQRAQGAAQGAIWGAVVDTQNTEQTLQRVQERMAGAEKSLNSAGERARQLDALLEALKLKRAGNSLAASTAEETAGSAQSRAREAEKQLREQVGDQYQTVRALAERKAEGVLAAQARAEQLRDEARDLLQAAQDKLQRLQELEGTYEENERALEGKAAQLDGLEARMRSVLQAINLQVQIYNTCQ
T2 sequence 2: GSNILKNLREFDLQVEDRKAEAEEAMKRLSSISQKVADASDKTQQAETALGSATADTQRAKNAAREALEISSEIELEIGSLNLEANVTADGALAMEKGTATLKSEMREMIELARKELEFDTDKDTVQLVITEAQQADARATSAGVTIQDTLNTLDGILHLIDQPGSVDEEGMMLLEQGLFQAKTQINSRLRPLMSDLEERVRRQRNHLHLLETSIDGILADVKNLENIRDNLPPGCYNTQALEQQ

T3: β1γ1 complex of the recombinant mouse laminin coiled-coil fragments (mouse, UniProt P02469 1561-1786; P02468 1362-1607)
T3 construct: two residues (GlySer) left from the protease recognition site after thrombin cleavage; laminin β1 chain, mouse, residues 1561-1786 of the native chain; as m6; laminin γ1 chain, mouse, residues 1362-1607 of the native chain; as m9; heterodimer by AUC; in the αβγ tests all three chains were mixed, the βγ complex was not isolated beforehand; source: mixture of the purified E. coli fragments; not …
T3 sequence 1: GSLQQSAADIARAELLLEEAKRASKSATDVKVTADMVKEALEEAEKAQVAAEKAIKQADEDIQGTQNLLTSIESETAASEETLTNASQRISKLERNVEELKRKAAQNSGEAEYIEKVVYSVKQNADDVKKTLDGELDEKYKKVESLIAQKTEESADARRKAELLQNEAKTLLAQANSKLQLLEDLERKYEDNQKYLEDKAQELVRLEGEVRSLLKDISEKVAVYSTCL
T3 sequence 2: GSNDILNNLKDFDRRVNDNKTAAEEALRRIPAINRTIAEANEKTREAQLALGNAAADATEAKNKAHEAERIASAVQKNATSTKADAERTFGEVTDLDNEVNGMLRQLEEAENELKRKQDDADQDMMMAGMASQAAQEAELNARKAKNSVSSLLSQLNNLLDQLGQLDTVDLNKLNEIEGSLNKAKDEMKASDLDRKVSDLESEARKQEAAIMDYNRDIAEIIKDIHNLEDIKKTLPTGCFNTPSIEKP

T4: β2γ3 complex of the recombinant mouse laminin coiled-coil fragments (mouse, UniProt Q61292 1575-1799; Q9R0B6 1344-1581)
T4 construct: two residues (GlySer) left from the protease recognition site after thrombin cleavage; laminin β2 chain, mouse, residues 1575-1799 of the native chain; as m7; laminin γ3 chain, mouse, residues 1344-1581 of the native chain; as m11; in the αβγ tests all three chains were mixed, the βγ complex was not isolated beforehand; source: mixture of the purified E. coli fragments; not shown: 6xHis, …
T4 sequence 1: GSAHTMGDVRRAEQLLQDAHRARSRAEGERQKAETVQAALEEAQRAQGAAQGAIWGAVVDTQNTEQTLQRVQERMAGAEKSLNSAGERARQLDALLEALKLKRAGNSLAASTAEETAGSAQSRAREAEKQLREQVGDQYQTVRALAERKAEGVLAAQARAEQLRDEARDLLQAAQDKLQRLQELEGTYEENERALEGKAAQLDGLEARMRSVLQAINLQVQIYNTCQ
T4 sequence 2: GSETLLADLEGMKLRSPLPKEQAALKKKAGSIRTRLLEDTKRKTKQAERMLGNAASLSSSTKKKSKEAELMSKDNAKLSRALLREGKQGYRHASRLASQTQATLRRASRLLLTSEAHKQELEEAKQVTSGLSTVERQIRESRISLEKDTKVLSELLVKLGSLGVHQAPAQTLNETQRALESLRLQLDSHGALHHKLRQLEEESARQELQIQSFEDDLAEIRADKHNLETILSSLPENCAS

T5: recombinant mouse laminin β1 chain C-terminal coiled-coil fragment (1561–1786) (mouse, UniProt P02469 1561-1786)
T5 construct: two residues (GlySer) left from the protease recognition site after thrombin cleavage; laminin β1 chain, mouse, C-terminal coiled-coil fragment, residues 1561-1786 of the native chain (226 residues); source: E. coli JM109(DE3), purified (Ni2+-Sepharose, denaturing, 8 M urea), 6xHis tag removed by thrombin; not shown: 6xHis, N-terminal, cleaved
T5 sequence: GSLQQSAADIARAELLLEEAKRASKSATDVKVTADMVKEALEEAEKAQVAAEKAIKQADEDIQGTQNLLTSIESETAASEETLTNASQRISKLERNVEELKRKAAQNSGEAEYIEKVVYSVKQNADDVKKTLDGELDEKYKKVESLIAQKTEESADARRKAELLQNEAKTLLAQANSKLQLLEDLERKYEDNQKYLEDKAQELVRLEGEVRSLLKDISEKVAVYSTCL


Legend:
Conditions in all cases: both partners purified
[1] = target: T1, β2γ1 complex of the recombinant mouse …; assay: native gel or EMSA; mixtures of one α, one β and one γ chain fragment; 10% non-denaturing PAGE (acid gels for basic complexes); mixtures reduced, heated to 70 °C for 5 min and cooled; run overnight at 50 V, room temperature, no cooling; Coomassie; bands confirmed by in-gel trypsin digestion and mass spectrometry
[2] = target: T2, β2γ2 complex of the recombinant mouse …; assay: as above
[3] = target: T3, β1γ1 complex of the recombinant mouse …; assay: as above
[4] = target: T4, β2γ3 complex of the recombinant mouse …; assay: as above
[5] = target: T5, recombinant mouse laminin β1 chain …; assay: AUC; sedimentation equilibrium and velocity; 5 mM sodium phosphate, 150 mM NaCl, pH 7.0 (methods) or 7.4 (Table 3); 0.1-0.5 mg/ml

binding result [1]	binding result [2]	binding result [3]	binding result [4]	stoichiometry N [5]	Binder
binds	binds	binds	binds	–	recombinant mouse laminin α4 chain C-terminal coiled-coil fragment (616–842) (domain or fragment, two residues (GlySer) left from the protease recognition site after thrombin cleavage; laminin α4 chain, mouse, C-terminal coiled-coil fragment, residues 616-842 of the native chain (227 residues); source: E. coli JM109(DE3), purified (Ni2+-Sepharose, denaturing, 8 M urea), 6xHis tag removed by thrombin; not shown: 6xHis, N-terminal, cleaved; pPEP-T leader (short C-terminal fragment of the …)) GSASNVYENIANYVSEANETAELALNITDRIYDAVSGIDTQIIYHKDESDNLLNQARELQAKADSSNDEAVADTSRRVGGALWRKGALRDRLNDAVKQLQAAERGDAHQRLGQSKLFIEEANKTTAAVQQVTTPMANNLSNWSQNLQTFDSSAYNTAVDSARDAVRNLTEVVPQLLDQLRTVEQKRPASNISASIQRIRELIAQTRSVASKIQVSMMFDGQSAVEVHPK
–	–	–	–	1 γ2 per β1 (2:2)	recombinant mouse laminin γ2 chain C-terminal coiled-coil fragment (949–1191) (domain or fragment, two residues (GlySer) left from the protease recognition site after thrombin cleavage; laminin γ2 chain, mouse, C-terminal coiled-coil fragment, residues 949-1191 of the native chain (243 residues); source: E. coli JM109(DE3), purified (Ni2+-Sepharose, denaturing, 8 M urea), 6xHis tag removed by thrombin; not shown: 6xHis, N-terminal, cleaved; pPEP-T leader (short C-terminal fragment of the …)) GSNILKNLREFDLQVEDRKAEAEEAMKRLSSISQKVADASDKTQQAETALGSATADTQRAKNAAREALEISSEIELEIGSLNLEANVTADGALAMEKGTATLKSEMREMIELARKELEFDTDKDTVQLVITEAQQADARATSAGVTIQDTLNTLDGILHLIDQPGSVDEEGMMLLEQGLFQAKTQINSRLRPLMSDLEERVRRQRNHLHLLETSIDGILADVKNLENIRDNLPPGCYNTQALEQQ
